These results are taken from the supplement of paper PMC11780869.

This data set has as its system Bacillus subtilis. The data set is described as follows: cleaved RNA product abundance (RNA/gDNA barcode ratio) relative to median wild-type variant (ratio to wild type); higher = more accumulation of the downstream cleavage product. The note with it: cleavage site: cggR-gapA (positions -7 to +36 mutated). The essentials:
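Sequencing of barcodes from gel-selected, reverse-transcribed cleaved RNA and from genomic DNA, with UMI collapsing, yielded a per-construct RNA:gDNA ratio. Scaled to the median construct with the unmutated site, this ratio is the cleaved product abundance. The barcoded reporters (truncated aprE or tetM mRNAs with mutagenized RNase Y cleavage-site windows) were integrated into the B. subtilis chromosome, and cultures grew in LB at 37°C from OD600 0.0003 to 0.3.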

[1] abbreviates: experiment (reporter, strain, medium): exp 2b: truncated aprE reporter, strain BJT200.
[2] abbreviates: experiment (reporter, strain, medium): exp 4a: truncated aprE reporter, strain BJT201 with 2% xylose (RNase J1 expressed).
[3] abbreviates: experiment (reporter, strain, medium): exp 6: tetM reporter, strain 168.

“ACAGACGAAGGAGCCGCAAAGAAGTTATTAAGGGATGAATAATCCATCAATATAAATATCTCTCACTTATTTAAA”: the “cleaved RNA product abundance” value by setting is: under setting [1], 0.184; under setting [2], 0.23; under setting [3], 0.201.
Regarding “ACAGACGAAGGAGCCGCAAAGAAGTTATTAAGGGATGAATAATCCATCAATATAAATATTTCTCACTTATTTAAA”, the “cleaved RNA product abundance” value under setting [2] is 0.286.
On to “ACAGACGAAGGAGCCGCAAAGAAGTTATTAAGGGATGAATAATCCATCAATATAAATCTCTCTCACTTATTTAAA”, for which the “cleaved RNA product abundance” value under setting [2] was determined as 0.17.
On the same count and under the same terms, the same measure for “ACAGACGAAGGAGCCGCAAAGAAGTTATTAAGGGATGAATAATCCATCAATATAAGTATCTCTCACTTATTTAAA”: 0.0774.
Same read-out and setting: in the case of “ACAGACGAAGGAGCCGCAAAGAAGTTATTAAGGGATGAATAATCCATCAATATACATATCTCTCACTTATTTAAA” it was 0.296.
Consider “ACAGACGAAGGAGCCGCAAAGAAGTTATTAAGGGATGAATAATCCATCAATATATATATCTCTCACTTATTTAAA”, for which the “cleaved RNA product abundance” value stood at 0.19 under setting [1] and 0.191 under setting [2].
“ACAGACGAAGGAGCCGCAAAGAAGTTATTAAGGGATGAATAATCCATCAATGTAAATATCTCTCACTTATTTAAA”: the “cleaved RNA product abundance” value under setting [1] worked out at 0.0896 and the “cleaved RNA product abundance” value under setting [2] turned out to be 0.0513.
Consider “ACAGACGAAGGAGCCGCAAAGAAGTTATTAAGGGATGAATAATCCATCAATTTAAATATCTCTCACTTATTTAAA”, for which the “cleaved RNA product abundance” value under setting [2] was 0.13.
For the sequence “ACAGACGAAGGAGCCGCAAAGAAGTTATTAAGGGATGAATAATCCATCATTATAAATATCTCTCACTTATTTAAA”, the “cleaved RNA product abundance” value under setting [1] stood at 0.158.
On to “ACAGACGAAGGAGCCGCAAAGAAGTTATTAAGGGATGAATAATCCATCCATATAAATATCTCTCACTTATTTAAA”, for which the “cleaved RNA product abundance” value under setting [2] was determined as 0.222.
Take “ACAGACGAAGGAGCCGCAAAGAAGTTATTAAGGGATGAATAATCCATCGATATAAATATCTCTCACTTATTTAAA”: the “cleaved RNA product abundance” value under setting [2] amounted to 0.112.
In the case of “ACAGACGAAGGAGCCGCAAAGAAGTTATTAAGGGATGAATAATCCATCTATATAAATATCTCTCACTTATTTAAA”, the “cleaved RNA product abundance” value under setting [1] stood at 0.191.
For the sequence “ACAGACGAAGGAGCCGCAAAGAAGTTATTAAGGGATGAATAATCCATGAATATAAATATCTCTCACTTATTTAAA”, under setting [2], the “cleaved RNA product abundance” value amounted to 0.18.
Take “ACAGACGAAGGAGCCGCAAAGAAGTTATTAAGGGATGAATAATCCATTAATATAAATATCTCTCACTTATTTAAA”: the “cleaved RNA product abundance” value is 0.766 under setting [1], 0.688 under setting [2] and 0.984 under setting [3].
Turning to “ACAGACGAAGGAGCCGCAAAGAAGTTATTAAGGGATGAATAATCCCAAAATATAAATATCTCTCACTTATTTAAA”, the “cleaved RNA product abundance” value is, setting by setting: under setting [1], 0.306; under setting [2], 0.31.
“ACAGACGAAGGAGCCGCAAAGAAGTTATTAAGGGATGAATAATCCCACAAAATAAATATCTCTCACTTATTTAAA”: the “cleaved RNA product abundance” value under setting [2] turned out to be 0.256.
Regarding “ACAGACGAAGGAGCCGCAAAGAAGTTATTAAGGGATGAATAATCCCACAAGATAAATATCTCTCACTTATTTAAA”, the “cleaved RNA product abundance” value runs as follows: under setting [1], 0.158; under setting [2], 0.187.
“ACAGACGAAGGAGCCGCAAAGAAGTTATTAAGGGATGAATAATCCCACAATATAAAAATCTCTCACTTATTTAAA”: under setting [2], the “cleaved RNA product abundance” value is 0.25.
Same read-out and setting: in the case of “ACAGACGAAGGAGCCGCAAAGAAGTTATTAAGGGATGAATAATCCCACAATATAAACATCTCTCACTTATTTAAA” it was 0.277.
As for “ACAGACGAAGGAGCCGCAAAGAAGTTATTAAGGGATGAATAATCCCACAATATAAATAACTCTCACTTATTTAAA”, under setting [1], the “cleaved RNA product abundance” value came out at 0.231.
Consider “ACAGACGAAGGAGCCGCAAAGAAGTTATTAAGGGATGAATAATCCCACAATATAAATATCTCTCACTTATTTAAA”, for which the “cleaved RNA product abundance” value came out at 0.204 under setting [1], 0.279 under setting [2] and 0.271 under setting [3].
For the sequence “ACAGACGAAGGAGCCGCAAAGAAGTTATTAAGGGATGAATAATCCCACAATATAAATATTTCTCACTTATTTAAA”, under setting [2], the “cleaved RNA product abundance” value was 0.386.
For the sequence “ACAGACGAAGGAGCCGCAAAGAAGTTATTAAGGGATGAATAATCCCACAATATACATATCTCTCACTTATTTAAA”, under setting [2], the “cleaved RNA product abundance” value amounted to 0.249.
The same measure, in the same setting: in the case of “ACAGACGAAGGAGCCGCAAAGAAGTTATTAAGGGATGAATAATCCCACAATATATATATCTCTCACTTATTTAAA” it was 0.303.
For “ACAGACGAAGGAGCCGCAAAGAAGTTATTAAGGGATGAATAATCCCACAATATGAATATCTCTCACTTATTTAAA”, the “cleaved RNA product abundance” value worked out at 0.107 under setting [1] and 0.0667 under setting [2].
As to “ACAGACGAAGGAGCCGCAAAGAAGTTATTAAGGGATGAATAATCCCACATTATAAATATCTCTCACTTATTTAAA”, the “cleaved RNA product abundance” value under setting [2] turned out to be 0.152.
